Measured values from article PMC10362037.

Molecular target: SARS-CoV-2 (2019-nCov) Spike S1 (Abclonal, RP01262) (SARS-CoV-2) (UniProt P0DTC2)
Assay: SPR

Substance | Kd
Human integrin αvβ3 (R&D Systems, 3817-AV-050) (from UniProt P06756 31-1048; P05106 27-718) (complex) | 0.0404 µM
suPAR (purified protein of the SPR assay) (from UniProt Q03405 23-305) (natural protein) | > 2000 µM
